Legend:
[1] = target: T1, Agrocybe aegerita peroxygenase AaeUPO1 variant JaWa (PaDa-I + G241D, R257K: V57A, L67F, V75I, G241D, I248V, R257K, F311L), SEQ ID NO: 24 (Cyclocybe aegerita, UniProt B9W4V6, F354L/G284D/I291V/L110F/R300K/V100A/V118I); assay: Kinetic constants, JaWa variant
T1 sequence (B9W4V6 44-371 V100A/L110F/V118I/G284D/I291V/R300K/F354L): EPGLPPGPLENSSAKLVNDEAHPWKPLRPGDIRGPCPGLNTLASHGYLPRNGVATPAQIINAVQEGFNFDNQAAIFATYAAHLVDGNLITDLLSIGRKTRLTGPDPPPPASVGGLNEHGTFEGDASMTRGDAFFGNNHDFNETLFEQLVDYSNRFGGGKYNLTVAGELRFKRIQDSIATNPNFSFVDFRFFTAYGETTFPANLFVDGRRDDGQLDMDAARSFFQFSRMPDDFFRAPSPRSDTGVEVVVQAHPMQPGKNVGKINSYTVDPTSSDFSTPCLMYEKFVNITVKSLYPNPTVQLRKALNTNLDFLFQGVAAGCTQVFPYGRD
Procedure: In order to calculate the values of Km and kcat, values of Vmax were represented at substrate concentrations and the hyperbole function was adjusted (using SigmaPlot 10.0, wherein the parameter a is equal to kcat and the parameter b, to Km).
Additionally, the kinetic values of the two variants were determined using substrates of both peroxygenase and peroxidase activity (Table 2), as described in the section on materials and methods.

[2] = cited from earlier work
[3] = Activity of W24F variants on peroxygenase substrates, flask culture supernatants; type: biochemical; conditions: relative to respective parental
Excerpt: (§1) FIG. 5 W24F variants obtained by means of directed mutagenesis. A) Model built on the crystal structure of the AaeUPO1 enzyme (PDB access number: 2YOR), comprising the mutations of the JaWa variant as well as the W24F modification with respect to wild AaeUPO1. The model is shown without a surface, with a transparent surface and with an opaque surface, showing position W24. B) Activity of the W24F variants using different substrates with respect to their respective parentals, relativised to the PaDa-I activity. The experiments were carried out using 100 mL flask culture supernatants.

[4] = Activity of W24F variants on peroxidase substrates, flask culture supernatants; type: biochemical; conditions: all the tested substrates, relative to respective parental
Excerpt: as §1

[5] = Optimum pH for naphthalene; type: biochemical
[6] = Isoelectric point by two-dimensional electrophoresis; type: physicochemical
Procedure: The analyses were performed using an Autoflex III MALDI-TOF-TOF unit with smartbeam laser (Bruker Daltonics). The samples were evaluated in positive mode. The method was calibrated using BSA with standard, thereby covering a range of 15,000 to 70,000 Da. In order to determine the isoelectric point of the UPO variants, 8 μg of pure enzyme were subjected to two-dimensional electrophoresis. These experiments were carried out at the Proteomic and Genomic Service of the Biological Research Centre (CIB-CSIC, Spain).

Optimum pH for ABTS = type: biochemical
Optimum pH for DMP = type: biochemical
[7] = Turnover with 5′-hydroxypropranolol as substrate, HPLC; type: biochemical; conditions: 0.03 μM enzyme, 0.4 mM 5′-hydroxypropranolol, 2 mM H2O2, absence of ascorbic acid
Procedure: FIG. 14 Turnover rates of AaeUPO, JaWa and SoLo. […] The disappearance of the product 5′-hydroxypropranolol can be observed due to the formation of its corresponding quinone by means of the peroxidase activity of the enzyme.
(§2) The reactions were analysed by means of chromatography in reverse phase (HPLC). The equipment was composed of a tertiary pump (Varian-Agilent Technologies, USA) coupled to an autosampler (Merck Millipore, MA, USA); for the separation, a Zorbax Eclipse plus C18 column (15 cm×4.6 cm) at 40° C. was used and the detection was performed using a photodiode detector (PDA) (Varian, Agilent Technologies, USA). The mobile phase selected was a gradient from 10% methanol and 90% ddH2O (in both cases with 0.1% of acetic acid) up to 90% methanol and 10% ddH2O at a flow rate of 0.8 mL/min. The reaction was quantified at 280 nm (based on HPLC standards). […] The standard deviations were less than 5% in all cases.

[8] = Total turnover number (TTN) for synthesis of 5′-hydroxypropranolol from propranolol; type: biochemical; conditions: 0.03 μM enzyme, propranolol, 2 mM H2O2 added every 10 minutes
Procedure: FIG. 15 Calculation of the total turnover number (TTN) of AaeUPO and SoLo.
as §2

For `OO` [H2O2, hydrogen peroxide], the Km ([1]; H2O2, benzyl alcohol as substrate at saturation, pH 7.0) was 1250 µM.

For `c1ccc2ccccc2c1` [naphthalene], the “solubility of the naphthalene in water” value [2] is listed as 31.7 µg/mL.

In the case of `c1ccc2ccccc2c1` [Naphthalene, naphthalene], the “decrease in Km” value ([1]; JaWa vs PaDa-I, naphthalene) is reported as 3 times.

With `CC(C)NCC(O)COc1cccc2c(O)cccc12` (stereo not drawn) [5′-hydroxypropranolol] the “increase in kcat (up to)” value ([1]; summary of advantages, variant not named, matches JaWa vs PaDa-I) was “up to 3.6 fold”.

B1: PaDa-I-W24F: W24F variant obtained from the PaDa-I mutant, SEQ ID NO: 30 (protein)
chain: MKYFPLFPTLVYAVGVVAFPDYASLAGLSQQELDAIIPTLEAREPGLPPGPLENSSAKLVNDEAHPFKPLRPGDIRGPCPGLNTLASHGYLPRNGVATPAQIINAVQEGFNFDNQAAIFATYAAHLVDGNLITDLLSIGRKTRLTGPDPPPPASVGGLNEHGTFEGDASMTRGDAFFGNNHDFNETLFEQLVDYSNRFGGGKYNLTVAGELRFKRIQDSIATNPNFSFVDFRFFTAYGETTFPANLFVDGRRDDGQLDMDAARSFFQFSRMPDDFFRAPSPRSGTGVEVVVQAHPMQPGRNVGKINSYTVDPTSSDFSTPCLMYEKFVNITVKSLYPNPTVQLRKALNTNLDFLFQGVAAGCTQVFPYGRD
In the case of B1, the “reduction in the activity on naphthalene and NBD by the W24F mutation” value [3] is reported as 50% and the “reduction of peroxidase activity by the W24F mutation” value [4] is reported as 60%.

B2: AaeUPO1: unspecific peroxygenase UPO (E.C. 1.11.2.1) of Agrocybe aegerita, wild type, SEQ ID NO: 2 / 4 (protein, listed as Agrocybe aegerita)
chain: MKYFPLFPTLVYAVGVVAFPDYASLAGLSQQELDAIIPTLEAREPGLPPGPLENSSAKLVNDEAHPWKPLRPGDIRGPCPGLNTLASHGYLPRNGVATPVQIINAVQEGLNFDNQAAVFATYAAHLVDGNLITDLLSIGRKTRLTGPDPPPPASVGGLNEHGTFEGDASMTRGDAFFGNNHDFNETLFEQLVDYSNRFGGGKYNLTVAGELRFKRIQDSIATNPNFSFVDFRFFTAYGETTFPANLFVDGRRDDGQLDMDAARSFFQFSRMPDDFFRAPSPRSGTGVEVVIQAHPMQPGRNVGKINSYTVDPTSSDFSTPCLMYEKFVNITVKSLYPNPTVQLRKALNTNLDFFFQGVAAGCTQVFPYGRD
For B2, the “Optimum pH for naphthalene” value [5] was 6.5, the pI [6] was 4.9-5.7 and the “Optimum pH for ABTS” value (Optimum pH for ABTS) was 4.0. For the same molecule, the “Optimum pH for DMP” value (Optimum pH for DMP) was 7.0, the “5′-hydroxypropranolol maintained without oxidising” value [7] was “oxidise practically the entire product” and the “TTNs, With ascorbic acid” value ([8]; 4 mM ascorbic acid) was 14,000. The “TTNs, Without ascorbic acid” value ([8]; absence of ascorbic acid) was 3,000.

B3: JaWa-W24F: W24F variant obtained from the JaWa mutant, SEQ ID NO: 32 (protein)
chain: MKYFPLFPTLVYAVGVVAFPDYASLAGLSQQELDAIIPTLEAREPGLPPGPLENSSAKLVNDEAHPFKPLRPGDIRGPCPGLNTLASHGYLPRNGVATPAQIINAVQEGFNFDNQAAIFATYAAHLVDGNLITDLLSIGRKTRLTGPDPPPPASVGGLNEHGTFEGDASMTRGDAFFGNNHDFNETLFEQLVDYSNRFGGGKYNLTVAGELRFKRIQDSIATNPNFSFVDFRFFTAYGETTFPANLFVDGRRDDGQLDMDAARSFFQFSRMPDDFFRAPSPRSDTGVEVVVQAHPMQPGKNVGKINSYTVDPTSSDFSTPCLMYEKFVNITVKSLYPNPTVQLRKALNTNLDFLFQGVAAGCTQVFPYGRD
With B3 the “reduction in the activity on naphthalene and NBD by the W24F mutation” value [3] was 50% and the “reduction of peroxidase activity by the W24F mutation” value [4] was 60%.
